Results taken from US20240052048A1.

Target: monkey BCMA on BCMA-CHO cells (cynomolgus monkey)
Test: flow cytometry (MFI) on CHO cells expressing monkey BCMA; EC50 table in the figure; fit value for a flat control curve

Chain of monkey BCMA on BCMA-CHO cells (cynomolgus monkey) (chain, as listed by the source): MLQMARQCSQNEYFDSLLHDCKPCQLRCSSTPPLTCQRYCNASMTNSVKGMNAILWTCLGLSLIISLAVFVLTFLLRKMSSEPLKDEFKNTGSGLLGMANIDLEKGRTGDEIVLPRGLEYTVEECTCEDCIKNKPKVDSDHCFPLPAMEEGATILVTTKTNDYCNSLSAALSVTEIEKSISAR

EC50: 0.357 µg/mL
Substance: Irrelevant antibody
